How the values were obtained:
[1] = biological target: T1, CD137-Ig (R&D Systems) (human, UniProt Q07011 24-186); test: ELISA on coated receptor-Ig fusion proteins, against the EC50 on the OX40R fusion protein
T1 construct: extracellular domain; Bought; also called 4-1BB receptor (CD137)
Procedure: (§1) Maxisorb 96-well plates (Nunc, Roskilde, Denmark) were coated with 100 μl of human TNFα receptor family member fusion proteins at 0.25 μg/ml diluted in BupH™ Carbonate buffer, pH 9.4 (Pierce, Rockford, Ill.) and incubated overnight at 4° C. The selectivity receptor fusion proteins tested included CD40-Ig (Alexis Biochemicals, San Diego, Calif.), CD137-Ig (R&D Systems, Minneapolis, Minn.) and CD271-Ig (Alexis Biochemicals, San Diego, Calif.). Also included as the positive control with each assay was the OX40-Ig fusion protein (in-house construct, Bioexpress, 97/2117). Plates were then washed three times with wash buffer containing 0.05% Tween 20 (Sigma, St Louis, Mo.) diluted in PBS and blocked with 300 μl of 0.5% BSA (Sigma, St Louis, Mo.) in PBS (Sigma, St Louis, Mo.) for 1 hour at RT°. Next, the plates were washed and 100 μl/well of anti-human OX40 reactive antibodies were added to the plates at various concentrations and incubated for 1 hour at RT°. Plates were thoroughly washed three times and OX40R antibody binding was detected with a horse radish peroxidase labeled anti-human kappa chain antibody (Bethyl Laboratories, Montgomery, Tex.) at 25 ng/ml for 1 hour at RD°. Plates were then washed three times which was followed by the addition of 100 μl/well of 1-Step Turbo-TMB substrate (Pierce, Rockford, Ill.) for 30 minutes at RT. The reaction was stopped by adding an equal volume of 2M H₂ SO₄. Absorbance was read at 450 nm on a Molecular Devices Spectra Max 340 (Molecular Devices, Sunnyvale, Calif.).

[2] = biological target: T2, CD40-Ig (Alexis Biochemicals) (human, UniProt P25942 21-193); test: as above
T2 construct: extracellular domain; Bought; also called CD40 receptor
Procedure: as §1

[3] = biological target: T3, CD271-Ig (Alexis Biochemicals) (human, UniProt P08138 29-250); test: as above
T3 construct: extracellular domain; Bought; also called nerve growth factor receptor (CD271)
Procedure: as §1

[4] = biological target: T4, mouse OX40R on activated mouse T cells (mouse, UniProt P47741 20-272); test: FACS, Alexa Fluor 647 conjugated antibody on activated T cells
T4 construct: whole, on cells; also called mouse cells; murine OX40R
T4 sequence (looked up): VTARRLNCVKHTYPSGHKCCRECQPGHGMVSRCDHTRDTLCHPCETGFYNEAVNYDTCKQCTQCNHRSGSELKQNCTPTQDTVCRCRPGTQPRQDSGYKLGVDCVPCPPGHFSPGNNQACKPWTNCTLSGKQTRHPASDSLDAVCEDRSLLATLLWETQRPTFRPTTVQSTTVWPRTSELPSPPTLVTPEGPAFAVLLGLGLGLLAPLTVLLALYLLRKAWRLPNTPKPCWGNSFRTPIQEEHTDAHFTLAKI
Procedure: (§2) Rat whole blood collected in heparinized syringes was diluted 1:3 in warm HBSS. Next, 5 mls was carefully layered over an equal volume of Lympholyte-Rat (Cedarlane Laboratories, Westbury, N.Y.). The tubes were centrifuged for 20 minutes at 1500 RPM. The PBMCs interface was collected, washed twice and the cell pellet was re-adjusted to 2×10⁶/ml in TCM. Two mls of cells were added to each well of a 24 well plate and stimulated for 24-48 hours with PHA (Remel, Lenexa, Kans.) at 10 ng/ml prior to flow cytometry staining.
(§3) Stimulated mouse, rat, rabbit, dog and cynomolgus PBMCs and the 300-19 cell line expressing the cynomolgus OX40 receptor were used to test for human OX40 antibody species cross-reactivity. Human OX40 expressing activated T lymphocytes and OX40 transduced 300-19 cells were used as positive controls. Cells (5.0×10⁵/tube) were washed once in cold wash buffer (PBS, 2% FBS and 0.02% sodium azide) and 100 μl/tube of Alexa Fluor 647 conjugated control or OX40 reactive antibodies at 5 ug/ml was added to each tube. The antibodies were labeled using an Alex Fluor 647 protein labeling kit as described by the manufacturer (Molecular Probes, Eugene, Oreg.). […] Antibody staining was measured and analyzed using a Becton Dickinson FACSCalibur and CellQuest software (San Jose, Calif.).

[5] = biological target: T5, rat OX40R on activated rat T cells (rat, UniProt P15725 20-271); test: as above
T5 construct: whole, on cells; also called rat cells
T5 sequence (looked up): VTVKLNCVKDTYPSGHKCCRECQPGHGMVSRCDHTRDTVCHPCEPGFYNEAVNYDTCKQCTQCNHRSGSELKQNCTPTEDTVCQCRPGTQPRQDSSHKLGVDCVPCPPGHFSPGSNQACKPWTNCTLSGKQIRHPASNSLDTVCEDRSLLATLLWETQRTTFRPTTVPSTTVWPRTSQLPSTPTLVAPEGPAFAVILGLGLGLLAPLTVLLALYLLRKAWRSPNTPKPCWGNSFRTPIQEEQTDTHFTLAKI
Procedure: as §2, §3

T1 sequence (Q07011 whole entry, the tested form may be a part): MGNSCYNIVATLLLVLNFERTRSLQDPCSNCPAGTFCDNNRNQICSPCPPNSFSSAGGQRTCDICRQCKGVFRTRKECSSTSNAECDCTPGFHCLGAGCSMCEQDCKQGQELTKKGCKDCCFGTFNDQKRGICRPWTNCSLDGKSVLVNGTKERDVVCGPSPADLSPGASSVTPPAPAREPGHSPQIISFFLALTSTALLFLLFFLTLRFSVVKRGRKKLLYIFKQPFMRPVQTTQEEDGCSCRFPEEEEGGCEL
T3 sequence (P08138 29-250): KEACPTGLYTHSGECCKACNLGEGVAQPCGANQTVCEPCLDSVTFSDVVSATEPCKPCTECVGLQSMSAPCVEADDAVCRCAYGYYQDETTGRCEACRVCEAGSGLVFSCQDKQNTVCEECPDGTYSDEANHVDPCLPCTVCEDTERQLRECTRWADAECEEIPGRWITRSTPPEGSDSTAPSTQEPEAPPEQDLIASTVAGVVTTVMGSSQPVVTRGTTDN
T2 sequence (P25942 21-193): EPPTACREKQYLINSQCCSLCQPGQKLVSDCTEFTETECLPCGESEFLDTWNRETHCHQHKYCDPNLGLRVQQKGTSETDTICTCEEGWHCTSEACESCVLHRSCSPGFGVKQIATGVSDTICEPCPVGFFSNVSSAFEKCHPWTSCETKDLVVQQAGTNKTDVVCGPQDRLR

B1: human monoclonal antibody 11D4 (antibody, V domains shown)
VH: EVQLVESGGGLVQPGGSLRLSCAASGFTFSSYSMNWVRQAPGKGLEWVSYISSSSSTIDYADSVKGRFTISRDNAKNSLYLQMNSLRDEDTAVYYCARESGWYLFDYWGQGTLVTVSS
VL: DIQMTQSPSSLSASVGDRVTITCRASQGISSWLAWYQQKPEKAPKSLIYAASSLQSGVPSRFSGSGSGTDFTLTISSLQPEDFATYYCQQYNSYPPTFGGGTKVEIKR
notes: IgG2 heavy chain, kappa light chain; allotypes G2(n-) and Km3; Alexa Fluor 647 conjugate was used in the species cross-reactivity FACS
[1]
  fold selectivity for the OX40R over this receptor: > 100 fold
[2]
  fold selectivity for the OX40R over this receptor: > 100 fold
[3]
  fold selectivity for the OX40R over this receptor: > 100 fold
[4]
  binding result: no binding (tested: 5 ug/ml)
[5]
  binding result: no binding (tested: 5 ug/ml)

From patent US20190135932A1 (Pfizer, published 2019)
